Measured values taken from patent publication US20210032287A1.

Target: Syntaxin-1 (GST-tagged) (Homo sapiens (Human)) (UniProt Q16623)
Experiment: ELISA-based competition assay; peptide (0.1, 0.5, 1 mM) preincubated with GST-Syntaxin-1 (10 or 5 nM), added to His-Munc18 (100 nM) on a nickel plate; anti-GST detection, A450

Syntaxin-1 (GST-tagged) (Homo sapiens (Human)), sequence (Q16623 1-261 limits assumed): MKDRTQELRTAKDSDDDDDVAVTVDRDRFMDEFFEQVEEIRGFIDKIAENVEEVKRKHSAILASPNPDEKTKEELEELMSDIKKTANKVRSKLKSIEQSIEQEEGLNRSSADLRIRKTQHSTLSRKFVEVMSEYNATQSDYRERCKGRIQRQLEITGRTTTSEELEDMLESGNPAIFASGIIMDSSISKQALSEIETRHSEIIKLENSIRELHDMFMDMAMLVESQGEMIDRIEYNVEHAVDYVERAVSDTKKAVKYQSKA

Substance | maximum inhibition of Munc18/Syntaxin-1 binding [%]
Ac-HILDMW-NH2 | 67
Ac-His-Ala-Leu-Arg-Phe-Trp-NH2 (peptide) | 37
